Measured values published in patent publication US20250369970A1 (ACADEMIA SINICA, published 2025).
Numbering of substitutions follows the chain as printed.

B1: p30-091 IgG (antibody, V domains shown)
VH: EVQLVESGGGLVQPGGSLRLSCAASGFTISDYWIHWVRQAPGKGLEWVAYINPHYGLTDYADSVKGRFTISADTSKNTAYLQMNSLRAEDTAVYYCARGWLLDYWGQGTLVTVSS
VL: DIQMTQSPSSLSASVGDRVTITCKSNQNLLDSGDQGTYLNWYQQKPGKAPKLLISDVSNLYSGVPSRFSGSGSGTDFTLTISSLQPEDFATYYCYQATSFPFTFGQGTKVEIKR
B2: p30-077 IgG (antibody, V domains shown)
VH: EVQLVESGGGLVQPGGSLRLSCAASGFTIGDWGIHWVRQAPGKGLEWVAGIWPFGGFTFYADSVKGRFTISADTSKNTAYLQMNSLRAEDTAVYYCARGSFYWDYWGQGTLVTVSS
VL: DIQMTQSPSSLSASVGDRVTITCRASQDVNNNVAWYQQKPGKAPKLLISSPTYLYSGVPSRFSGSGSGTDFTLTISSLQPEDFATYYCQQWYDWPITFGQGTKVEIKR
B3: p30-052 IgG (antibody, V domains shown)
VH: EVQLVESGGGLVQPGGSLRLSCAASGFTIDSGFIHWVRQAPGKGLEWVAGIGPFWGFTFYADSVKGRFTISADTSKNTAYLQMNSLRAEDTAVYYCARYGSSSYGFDYWGQGTLVTVSS
VL: B2 VL with N30D, T52G, Y53F, W91Y, Y92F, D93N, W94F
B4: p30-090 IgG (antibody, V domains shown)
VH: EVQLVESGGGLVQPGGSLRLSCAASGFTIDGGGIHWVRQAPGKGLEWVAGIWPSWGYTYYADSVKGRFTISADTSKNTAYLQMNSLRAEDTAVYYCARGFYWYDYWGQGTLVTVSS
VL: B2 VL with N32D, S49F, S50Y, T52G, Y53G, W91S, Y92W, D93N, W94Y, I96L

These binders were tested against recombinant p30 protein of ASFV (African swine fever virus (ASFV), UniProt P0C9Z3 1-181) (assay: ELISA, IgG titrated on immobilized recombinant p30).

B1 and B2 are the same in EC50: 2.6 ng/mL for the first, 2.6 ng/mL for the second.

Going from B3 to B4, the EC50 falls from 2 ng/mL to 0.9 ng/mL (2.2-fold).
